Here are results for 1 molecule from article PMC8924901 (Journal of molecular biology, 2021).

The target in the test is T1, rat PLCγ1 isolated cSH2 domain (H663-E759) (rat, UniProt P10686 663-759).
T1 sequence (looked up): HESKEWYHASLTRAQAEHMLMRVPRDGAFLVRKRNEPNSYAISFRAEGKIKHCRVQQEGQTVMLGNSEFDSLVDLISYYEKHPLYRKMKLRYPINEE
Description: NMR titration.

B1: rat PLCγ1 isolated split PH (sPH) domain (D485-N529/N865-R936 with a C-terminal 6X-His tag) (domain or fragment, UniProt P10686 485-529, looked up)
chain: DISNSIKNGILYLEDPVNHEWYPHYFVLTSSKIYYSEETSSDQGNNSPLGDLLRGVLDVPACQIAIRPEGKNNRLFVFSISMPSVAQWSLDVAADSQEELQDWVKKIREVAQTADAR
B1: the binding result is “binds”.
